{
  "source": "paper PMC8967028",
  "data": [
    {"target": "SARS-CoV-2 Wuhan spike (S) receptor binding domain (SARS-CoV-2)", "assay": "SPR; Biacore T200; […], single cycle kinetics, […]; 25°C; PBS, 0.05% Tween 20, 3.4 mM EDTA; 1:1 binding model; triplicate; […]", "units": {"koff": "s⁻¹"}, "values": [
      {"substance": "VHH-72-Fc T99V (Fc fusion)", "koff": 0.00072},
      {"substance": "VHH-72-Fc S56M (Fc fusion)", "koff": 0.0031},
      {"substance": "VHH-72-Fc S56M,L97W (Fc fusion)", "koff": 0.00044},
      {"substance": "VHH-72-Fc L97W,T99V (Fc fusion)", "koff": 0.00035},
      {"substance": "VHH-72-Fc L97W (Fc fusion)", "koff": 0.0018},
      {"substance": "VHH-72-Fc S56M,L97W,T99V (Fc fusion)", "koff": 0.00028},
      {"substance": "parental VHH-72-Fc (Fc fusion)", "koff": 0.0091},
      {"substance": "VHH-72-Fc S56M,T99V (Fc fusion)", "koff": 0.00041}
    ]}
  ]
}
